The record followed here is US20120107299.

One data set addresses T1, pSer380 PTEN.
T1 chain: EPDHYRYSDTTDSDPENE

The next data set concerns the target T2, pThr383 PTEN.
T2 chain: EPDHYRYSDTTDSDPENE

The target of another data set is T3, pThr382 PTEN.
T3 chain: EPDHYRYSDTTDSDPENE

The next data set deals with T4, pThr382/pThr 383 PTEN.
T4 chain: EPDHYRYSDTTDSDPENE

Data set [1] has as its target T5, pSer380/pThr382/pThr 383 PTEN.
T5 chain: EPDHYRYSDTTDSDPENE

B1: GST (Glutathione S-Transferase)-NDRG2 fusion protein (protein)
chain: MAELQEVQITEEKPLLPGQTPEAAKTHSVETPYGSVTFTVYGTPKPKRPAILTYHDVGLNYKSCFQPLFQFEDMQEIIQNFVRVHVDAPGMEEGAPVFPLGYQYPSLDQLADMIPCVLQYLNFSTIIGVGVGAGAYILARYALNHPDTVEGLVLINIDPNAKGWMDWAAHKLTGLTSSIPEMILGHLFSQEELSGNSELIQKYRNIITHAPNLDNIELYWNSYNNRRDLNFERGGDITLRCPVMLVVGDQAPHEDAVVECNSKLDPTQTSFLKMADSGGQPQLTQPGKLTEAFKYFLQGMGYMASSCMTRLSRSRTASLTSAASVDGNRSRSRTLSQSSESGTLSSGPPGHTMEVSC
For the protein B1, the “dephosphorylation of phosphorylated peptides (DOTBLOT method)” value with pSer380 PTEN is given as “cannot dephosphorylate the peptide wherein only S380 or only T383 is phosphorylated”. For the same protein, the “dephosphorylation of phosphorylated peptides (DOTBLOT method)” value in the data set with pThr383 PTEN was “cannot dephosphorylate the peptide wherein only S380 or only T383 is phosphorylated”. Also, in the data set with FLAG-PTEN, P60484, the “in vitro dephosphorylation of PTEN, Western blot with anti-PTEN antibodies specific to each phosphorylation” value is “dephosphorylation effects were recognized in BAP used as a positive control, and in GST-NDRG2”; the “phosphorylation status of PTEN protein by various PTEN phosphorylation antibodies after the reaction” value is “only S380, T382, and T383 are dephosphorylated by mixing with NDRG2, and S370 and S385 are not altered”. In addition, in the data set with pThr382 PTEN, the “dephosphorylation activity (phosphopeptide phosphatase assay, free phosphate by BIOMOL GREEN)” value is listed as “NDRG2 showed a dephosphorylation activity against the peptide including the phosphorylation at Thr382 of PTEN”; the “dot blot phosphatase assay, detection with rabbit anti-Phospho-PTEN (Ser380/Thr382/Thr383) polyclonal antibodies” value is “signals disappeared in the phosphorylated peptides at Thr382, Thr382/Thr383, and Ser380/Thr382/Thr383 by the reaction with NDRG2 protein”. For the same protein, in the data set with pThr382/pThr 383 PTEN, the “dot blot phosphatase assay, detection with rabbit anti-Phospho-PTEN (Ser380/Thr382/Thr383) polyclonal antibodies” value was “signals disappeared in the phosphorylated peptides at Thr382, Thr382/Thr383, and Ser380/Thr382/Thr383 by the reaction with NDRG2 protein”; the “production level of the phosphoric acid groups (phosphopeptide phosphatase assay, BIOMOL GREEN)” value was “an increase in the production level of the phosphoric acid groups in the Thr382/Thr383 peptide and Ser380/Thr382/Thr383 peptide was recognized compared to the phosphorylation of Thr382 alone”. For the same protein, in data set [1], the “dot blot phosphatase assay, detection with rabbit anti-Phospho-PTEN (Ser380/Thr382/Thr383) polyclonal antibodies” value was “signals disappeared in the phosphorylated peptides at Thr382, Thr382/Thr383, and Ser380/Thr382/Thr383 by the reaction with NDRG2 protein”; the “dot blot phosphatase assay, detection with rabbit anti-phospho-PTEN (Ser380) polyclonal antibodies” value is listed as “a signal disappeared in the phosphorylated peptide of Ser380/Thr382/Thr383 by the reaction with NDRG2 protein”; the “production level of the phosphoric acid groups (phosphopeptide phosphatase assay, BIOMOL GREEN)” value is “an increase in the production level of the phosphoric acid groups in the Thr382/Thr383 peptide and Ser380/Thr382/Thr383 peptide was recognized compared to the phosphorylation of Thr382 alone”.
